Assay results taken from patent US20250277025A1 (SHIJIAZHUANG YILING PHARMACEUTICAL, published 2025).

Key:
[1] = target: T1, human CLDN18.2 expressed on cells (human); experiment: flow cytometry (geometric mean, Alexa Fluor 647 anti-human IgG Fc) on CLDN18.2-expressing 293T cells
T1 construct: also called huCLDN18.2

[2] = target: T1, human CLDN18.2 expressed on cells; experiment: cell-based or functional assay
[3] = target: T1, human CLDN18.2 expressed on cells; experiment: cell-based or functional assay; remark: listed apart in the source
[4] = target: T1, human CLDN18.2 expressed on cells; experiment: cell-based or functional assay; remark: listed apart in the source
[5] = target: T1, human CLDN18.2 expressed on cells; experiment: cell-based or functional assay; remark: listed apart in the source
[6] = target: T1, human CLDN18.2 expressed on cells; experiment: flow cytometry on CHO cells expressing huCLDN18.2, GAH-FITC secondary, percent FITC-positive cells
Procedure: CHO cells expressing huCLDN18.2 were used to assess the binding of the antibodies. Cells were seeded at 5×10⁵ cells per 100 μl into a well of a 96-well plate for each sample. Then, 100 μl of each serially diluted antibody was added to the cells, each dilution started at 40 μg/ml and was diluted 5-fold. Therefore, the final concentration of each antibody starts at 20 μg/ml followed by a 5-fold serial dilution. After 1 hour, the cells were washed twice and 100 μl of GAH-FITC (1:200 dilution) was added to each well. After 30 minutes, the cells were washed twice and resuspended in 120 μl of FACS buffer. The cells were analyzed via flow cytometry.
Unstained cells were used as a reference to set up overall target cell gating and to establish the FITC-negative populations, allowing us to establish the FITC-positive cell gate for each cell line. Additionally, the mean fluorescence intensity (MFI) of the entire population of cells was calculated to secondarily validate the FITC-positive results. The ratio of the gated positive cell number to the total live cell number is taken as the percentage of positive cells.

B1: IMAB362 (Ganymed) (antibody, V domains shown)
VH: QVQLQQPGAELVRPGASVKLSCKASGYTFTSYWINWVKQRPGQGLEWIGNIYPSDSYTNYNQKFKDKATLTVDKSSSTAYMQLSSPTSEDSAVYYCTRSWRGNSFDYWGQGTTLTVSS
VL: DIVMTQSPSSLTVTAGEKVTMSCKSSQSLLNSGNQKNYLTWYQQKPGQPPKLLIYWASTRESGVPDRFTGSGSGTDFTLTISSVQAEDLAVYYCQNDYSYPFTFGSGTKLEIKR
- EC50 (read off the curve) [1]: ~0.8 µg/mL
- ADCC (PBMC) on KATOIII CLDN18.2 cells, LDH: EC50 (run A) [2]: 0.12 nM
- ADCC (PBMC) on KATOIII CLDN18.2 cells, LDH: EC50 (run B) [2]: 0.22 nM
- ADCC (PBMC) on KATOIII CLDN18.2 cells, LDH: EC50 (run C) [2]: 0.27 nM
- CDC on KATOIII CLDN18.2 cells, LDH: EC50 (run A) [3]: ~38.1 nM
- CDC on KATOIII CLDN18.2 cells, LDH: EC50 (run B) [3]: ~22.7 nM
- CDC on KATOIII CLDN18.2 cells, LDH: EC50 (run C) [3]: ~27.5 nM
- CDC on CT26 CLDN18.2 cells, LDH: EC50 (run A) [4]: ~11.5 nM
- CDC on CT26 CLDN18.2 cells, LDH: EC50 (run B) [4]: ~10.7 nM
- CDC on CT26 CLDN18.2 cells, LDH: EC50 (run C) [4]: ~11.9 nM
- ADCC (PBMC) on NCI-N87 CLDN18.2 cells, LDH: EC50 (run A) [5]: 0.057 nM
- ADCC (PBMC) on NCI-N87 CLDN18.2 cells, LDH: EC50 (run B) [5]: 0.082 nM
- ADCC (PBMC) on NCI-N87 CLDN18.2 cells, LDH: EC50 (run C) [5]: 0.1 nM

B2: YL-G1-19-02 (antibody, human IgG1, kappa)
heavy: not shown
light: DIVMTQSPSSLTVTAGEKVTMSCKSSQSLLNSGNQKNYLTWYQQRPGQPPKLLIYWASTRESGVPVRFTGSGSGTDFTLTISSVQAEDLAVYYCQNAYIYPLTFGTGTKLELKRTVAAPSVFIFPPSDEQLKSGTASVVCLLNNFYPREAKVQWKVDNALQSGNSQESVTEQDSKDSTYSLSSTLTLSKADYEKHKVYACEVTHQGLSSPVTKSFNRGEC
- ADCC (PBMC) on KATOIII CLDN18.2 cells, LDH: max (% cytotoxity) [2]: 19.9%

B3: YL-G2-B (antibody, human IgG1, kappa)
heavy: EVQLQQSGPELEKPGASVKISCKASGYSFTGYKMNWVKQSNGKSLEWIGNIDPYYGGTTYNQKFKGKATLTVDKSSSTAYMQLKSLTSEDSAVYYCARYGKGNTMDYWGQGTSVTVSSASTKGPSVFPLAPSSKSTSGGTAALGCLVKDYFPEPVTVSWNSGALTSGVHTFPAVLQSSGLYSLSSVVTVPSSSLGTQTYICNVNHKPSNTKVDKRVEPKSCDKTHTCPPCPAPELVGGPSVFLLPPKPKDTLMISRTPEVTCVVVDVSHEDPEVKFNWYVDGVEVHNAKTKPPEEQYNSTLRVVSVLTVLHQDWLNGKEYKCKVSNKALPAPIEKTISKAKGQPREPQVYTLPPSREEMTKNQVSLTCLVKGFYPSDIAVEWESNGQPENNYKTTPLVLDSDGSFFLYSKLTVDKSRWQQGNVFSCSVMHEALHNHYTQKSLSLSPGK
light: DIVMTQSPSSLTVTAGEKVTMSCKSSQSLLNSGNQKNYLTWYQQRPGQPPKLLIYWASTRESGVPVRFTGSGSGTDFTLTISSVQAEDLAVYYCQNAYIYPLTFGTGTKLELKRTVAAPSVFIFPPSDEQLKSGTASVVCLLNNFYPREAKVQWKVDNALQSGNSQESVTEQDSKDSTYSLSSTLTLSKADYEKHKVYACEVTHQGLSSPVTKSFNRGEC
notes: also called YL-G2-B batch 1; YL-G2-B batch 2
- EC50 (read off the curve) [6]: ~0.6 ng/mL

B4: YL-G2-C (antibody, human IgG1, kappa)
heavy: QIQLVQSGPELRKPGETVKISCKASGFPFTTDGMSWVKQAPGKGLKWMGWINTYSGVPTYADDFKGRVAFSLETSASTAYLQIKNLKNEDTATYFCARFRRGNALDNWGQGTSVTVSSASTKGPSVFPLAPSSKSTSGGTAALGCLVKDYFPEPVTVSWNSGALTSGVHTFPAVLQSSGLYSLSSVVTVPSSSLGTQTYICNVNHKPSNTKVDKRVEPKSCDKTHTCPPCPAPELVGGPSVFLLPPKPKDTLMISRTPEVTCVVVDVSHEDPEVKFNWYVDGVEVHNAKTKPPEEQYNSTLRVVSVLTVLHQDWLNGKEYKCKVSNKALPAPIEKTISKAKGQPREPQVYTLPPSREEMTKNQVSLTCLVKGFYPSDIAVEWESNGQPENNYKTTPLVLDSDGSFFLYSKLTVDKSRWQQGNVFSCSVMHEALHNHYTQKSLSLSPGK
light: DIVMTQSPSSLTVTAGEKVTMSCKSSQSLLNSGNQKNYLTWYQQKPGQPPKLLIYWASTRESGVPDRFTGSGSGTDFTLTISSVQAEDLAIYYCQNNYFYPLTFGAGTRLELKRTVAAPSVFIFPPSDEQLKSGTASVVCLLNNFYPREAKVQWKVDNALQSGNSQESVTEQDSKDSTYSLSSTLTLSKADYEKHKVYACEVTHQGLSSPVTKSFNRGEC
notes: Fc-engineered version of YL-G1-19-03; also called Fc-engineered chimeric antibody
- EC50 (read off the curve) [6]: ~0.6 ng/mL

B5: YL-G2-D (antibody, human IgG1, kappa)
heavy: QLQQSGPELEKPGASVKISCKASGYSFTGYKMNWVKQSNGESLEWIGNIDPYYGDTTYTQKFKGKATFTVDTSSSTAYMQLKSLTSEDSAVYFCARYNRGNTMDYWGQGTSVTVSSASTKGPSVFPLAPSSKSTSGGTAALGCLVKDYFPEPVTVSWNSGALTSGVHTFPAVLQSSGLYSLSSVVTVPSSSLGTQTYICNVNHKPSNTKVDKRVEPKSCDKTHTCPPCPAPELVGGPSVFLLPPKPKDTLMISRTPEVTCVVVDVSHEDPEVKFNWYVDGVEVHNAKTKPPEEQYNSTLRVVSVLTVLHQDWLNGKEYKCKVSNKALPAPIEKTISKAKGQPREPQVYTLPPSREEMTKNQVSLTCLVKGFYPSDIAVEWESNGQPENNYKTTPLVLDSDGSFFLYSKLTVDKSRWQQGNVFSCSVMHEALHNHYTQKSLSLSPGK
light: DIVMTQSPSSLTVTAGEKVTLSCKSSQSLLNSGNQKNYLTWYQQRPGQPPKLLIYWASTRESGVPVRFTGSGSGADFTLTISSVQAEDLAVYFCQNAYFYPLTFGTGTKLELRRTVAAPSVFIFPPSDEQLKSGTASVVCLLNNFYPREAKVQWKVDNALQSGNSQESVTEQDSKDSTYSLSSTLTLSKADYEKHKVYACEVTHQGLSSPVTKSFNRGEC
notes: Fc-engineered version of YL-G1-19-04 without the first two VH residues; also called Fc-engineered chimeric antibody
- EC50 (read off the curve) [6]: ~0.3 ng/mL
